Measurements taken from patent publication US20230355761A1 (CRISPR THERAPEUTICS, published 2023).

Target: T1, CD70 on human cancer cell lines (A498, ACHN, SK-OV-3, Hs 766T, NCI-H1975, Calu-1, DU 145, SNU-1, MM.1S, HuT78) (human, UniProt P32970 1-193)
T1 sequence (looked up): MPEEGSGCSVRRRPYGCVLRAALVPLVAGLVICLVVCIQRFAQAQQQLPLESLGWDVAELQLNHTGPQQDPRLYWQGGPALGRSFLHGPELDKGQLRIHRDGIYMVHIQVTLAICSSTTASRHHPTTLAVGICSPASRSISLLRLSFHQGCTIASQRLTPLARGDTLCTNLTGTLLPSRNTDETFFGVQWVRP
Assay: cell-based or functional assay

cell lysis of CD70+ A498 cells by TRAC-/β2M-/CD70-/anti-CD70 CAR+ T cells, Cell titer-Glo, 24 h, T cell:A498 ratios 1:1 and 0.5:1: > 90%
cell lysis of CD70+ A498 cells by TRAC-/β2M-/anti-CD70 CAR+ T cells (2X KO), Cell titer-Glo, 24 h, T cell:A498 ratios 1:1 and 0.5:1: < 90%
B1: anti-CD70 CAR (CD70B scFv with 41BB), as expressed on the surface of gene-edited human T cells (CTX130; TRAC-/β2M-/CD70-/anti-CD70 CAR+ T cells) (other)
chain: QVQLVQSGAEVKKPGASVKVSCKASGYTFTNYGMNWVRQAPGQGLKWMGWINTYTGEPTYADAFKGRVTMTRDTSISTAYMELSRLRSDDTAVYYCARDYGDYGMDYWGQGTTVTVSSGGGGSGGGGSGGGGSGDIVMTQSPDSLAVSLGERATINCRASKSVSTSGYSFMHWYQQKPGQPPKLLIYLASNLESGVPDRFSGSGSGTDFTLTISSLQAEDVAVYYCQHSREVPWTFGQGTKVEIKSAAAFVPVFLPAKPTTTPAPRPPTPAPTIASQPLSLRPEACRPAAGGAVHTRGLDFACDIYIWAPLAGTCGVLLLSLVITLYCNHRNRKRGRKKLLYIFKQPFMRPVQTTQEEDGCSCRFPEEEEGGCELRVKFSRSADAPAYQQGQNQLYNELNLGRREEYDVLDKRRGRDPEMGGKPRRKNPQEGLYNELQKDKMAEAYSEIGMKGERRRGKGHDGLYQGLSTATKDTYDALHMQALPPR
cell kill of A498, ACHN, SK-OV-3 and Hs-766T cells by 3X KO CD70 CAR+ T cells, flow cytometry, 24 h, 1:1 effector:target cell ratio: > 50%
cell kill of A498, ACHN, SK-OV-3 and Hs-766T cells by 3X KO CD70 CAR+ T cells, flow cytometry, 24 h, 4:1 effector:target cell ratio: > 60%
cell kill of NCI-H1975, Calu-1 and DU 145 cells (medium to low CD70 expression) by 3X KO CD70 CAR+ T cells, flow cytometry, 24 h, 4:1 effector:target cell ratio: > 30%
cell kill of SKOV-3, Hs-766T and NCI-H1975 cells by 3X KO CD70 CAR+ T cells, flow cytometry, 96 h, 1:1 effector:target cell ratio: > 80%
